This is an account of results in publication PMC8786823, “Flanking sequences influence the activity of TET1 and TET2 methylcytosine dioxygenases and affect genomic 5hmC patterns”.

This data set has as its target T1, UHRF2 SRA domain (human, UniProt Q96PU4 419-648).
T1 sequence: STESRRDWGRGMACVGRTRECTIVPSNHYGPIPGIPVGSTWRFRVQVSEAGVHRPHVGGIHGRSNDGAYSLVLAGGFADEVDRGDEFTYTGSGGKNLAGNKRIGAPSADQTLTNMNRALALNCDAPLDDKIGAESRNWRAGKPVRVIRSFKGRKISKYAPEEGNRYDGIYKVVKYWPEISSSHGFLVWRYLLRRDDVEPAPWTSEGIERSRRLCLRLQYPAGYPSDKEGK
Description: EMSA; 0.5 uM DNA; preferred over mC and unmodified DNA in the same context; 20 mM HEPES pH 7.9, 100 mM NaCl, 2 mM MgCl2, 2 mM DTT, 0.1% NP-40, 5% glycerol; 30 min on ice; 6% PAGE in 0.25X TBE, GelRed stain. The settings on record: protein: recombinant; tags: His; blunt. Background: Mobility shift assays separate free from complexed probe on a gel.

B1: TET-disf-hmC/TET-disf-rev (dsDNA)
DNA 1: GAAGCTGGGACGCGCGCCGGGAGAGTGCAA
DNA 2: TTGCACTCTCCCGGCGCGCGTCCCAGCTTC
modifications: 5hmC at position 15 of strand 1 (hemihydroxymethylated CpG)
Turning to B1, the binding result was “binds”.
